Biological target: the molecule itself
Test: cross-linking

B1: IpgC (natural protein)
chain: MSLNITENESISTAVIDAINSGATLKDINAIPDDMMDDIYSYAYDFYNKGRIEEAEVFFRFLCIYDFYNVDYIMGLAAIYQIKEQFQQAADLYAVAFALGKNDYTPVFHTGQCQLRLKAPLKAKECFELVIQHSNDEKLKIKAQSYLDAIQDIKE
stoichiometry N: 2

— PMC3903306 (Biochemistry, 2012)
